The values that follow come from patent US20260062456A1.

Where “and” joins values, the source holds several entries; their conditions need not be identical. Identical values can stand only once.

PD-1 (human), sequence (Q15116 25-288): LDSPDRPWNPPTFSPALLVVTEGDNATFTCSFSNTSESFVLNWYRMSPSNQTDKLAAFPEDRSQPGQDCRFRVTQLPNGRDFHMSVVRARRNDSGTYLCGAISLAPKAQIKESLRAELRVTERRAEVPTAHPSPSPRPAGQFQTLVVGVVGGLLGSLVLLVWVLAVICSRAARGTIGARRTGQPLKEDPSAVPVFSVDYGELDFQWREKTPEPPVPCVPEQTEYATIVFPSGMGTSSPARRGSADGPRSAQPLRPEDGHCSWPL

One experiment deals with PD-1-Fc (recombinant PD-1-Fc fusion protein) (human) (UniProt Q15116). In words: ForteBio Octet, PD-1-Fc on sensor. Background: In BLI a coated tip is dipped into the sample, and binding shifts an interference pattern.
PD-1-Fc (recombinant PD-1-Fc fusion protein) (human), sequence (Q15116 25-167 limits assumed): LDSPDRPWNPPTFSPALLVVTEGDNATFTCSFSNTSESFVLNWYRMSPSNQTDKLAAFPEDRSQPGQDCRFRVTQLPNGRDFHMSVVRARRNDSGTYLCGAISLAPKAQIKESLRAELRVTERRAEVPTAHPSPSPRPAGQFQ
With “PD-L2 IgV-Fc variant H15Q, S67L, R76G, I85F (Fc fusion)”, the Fortebio binding to PD-1-Fc Response Units (Response Units) turned out to be 0.025.

Regarding PD-L2 IgV-Fc variant H15Q (Fc fusion), the Fortebio binding to PD-1-Fc Response Units (Response Units) was determined as 0.007.

The target in another experiment is T1, CD226 (UniProt Q15762).
T1 sequence (looked up): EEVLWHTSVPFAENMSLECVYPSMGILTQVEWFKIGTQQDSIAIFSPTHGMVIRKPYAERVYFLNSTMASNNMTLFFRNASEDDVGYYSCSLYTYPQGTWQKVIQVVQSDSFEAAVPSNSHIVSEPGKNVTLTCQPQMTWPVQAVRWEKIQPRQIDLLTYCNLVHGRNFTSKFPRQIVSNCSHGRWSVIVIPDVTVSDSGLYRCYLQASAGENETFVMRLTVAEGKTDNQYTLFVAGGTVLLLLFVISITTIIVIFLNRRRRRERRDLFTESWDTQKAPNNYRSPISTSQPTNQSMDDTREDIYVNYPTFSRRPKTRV
In words: flow cytometry, cells expressing CD226. A general note: In flow cytometry, cells or beads pass a laser one at a time.
“variant CD155 IgV-Fc V9L, V11M, P18S, N35S, S54G, Q62K, L79P, L104M, T107M, V115M (Fc fusion)” yielded an MFI at 25 nM of 2320 MFI.

Another experiment concerns the target PD-1 (human) (UniProt Q15116). In words: cell-based or functional assay.
“variant PD-L1 IgV-Fc I20L, A33D, D43G, N45D, V58A, N78I (Fc fusion)”: the Average Relative Luminescence Units amounted to 4380 RLU and the Fold increase in IL2 reporter signal came to 1.97 fold.

As to “variant PD-L1 IgV-Fc E40G, D43V, N45T, V50A (Fc fusion)”, the Average Relative Luminescence Units was determined as 2220 RLU and the Fold increase in IL2 reporter signal worked out at 0.99 fold.

For “variant PD-L1 IgV-Fc A33D, D43G, N45D, V58A, S75P (Fc fusion)”, the Average Relative Luminescence Units worked out at 2310 RLU and the Fold increase in IL2 reporter signal is 1.04 fold.

In turn, “variant PD-L1 IgV-Fc I20L, N45T (Fc fusion)” gave an Average Relative Luminescence Units of 2180 RLU and a Fold increase in IL2 reporter signal of 0.98 fold.

As for “variant PD-L1 IgV-Fc A33D, E53V (Fc fusion)”, the Average Relative Luminescence Units worked out at 2140 RLU and the Fold increase in IL2 reporter signal came out at 0.96 fold.

The substance “variant PD-L1 IgV-Fc I20L, M41K, D43G, N45D (Fc fusion)” came in with an Average Relative Luminescence Units of 2110 RLU and a Fold increase in IL2 reporter signal of 0.95 fold.

Substance “variant PD-L1 IgV-Fc K23R, D43G, N45D (Fc fusion)” yielded an Average Relative Luminescence Units of 2360 RLU and a Fold increase in IL2 reporter signal of 1.06 fold.

The substance “variant PD-L1 IgV-Fc N45T, L74P, S75P (Fc fusion)” showed an Average Relative Luminescence Units of 2030 RLU and a Fold increase in IL2 reporter signal of 0.91 fold.

In turn, “variant PD-L1 IgV-Fc I20L, E27G, N45T, V50A (Fc fusion)” had an Average Relative Luminescence Units of 1800 RLU and a Fold increase in IL2 reporter signal of 0.81 fold.

“variant PD-L1 IgV-Fc E27G, N45T, V50A, N78I (Fc fusion)”: the Average Relative Luminescence Units worked out at 1960 RLU and the Fold increase in IL2 reporter signal was determined as 0.88 fold.

variant PD-L1 IgV-Fc N45T (Fc fusion) came in with an Average Relative Luminescence Units of 2190 RLU and a Fold increase in IL2 reporter signal of 0.98 fold.

As to “variant PD-L1 IgV-Fc I20L, E27G, D43G, N45T, V50A (Fc fusion)”, the Average Relative Luminescence Units was found to be 2010 RLU and the Fold increase in IL2 reporter signal was determined as 0.9 fold.

Substance “variant PD-L1 IgV-Fc A33D, N45T (Fc fusion)” yielded an Average Relative Luminescence Units of 2000 RLU and a Fold increase in IL2 reporter signal of 0.9 fold.

Consider “variant PD-L1 IgV-Fc A33D, S75P, D85E (Fc fusion)”, for which the Average Relative Luminescence Units amounted to 2220 RLU and the Fold increase in IL2 reporter signal amounted to 0.99 fold.

Substance “variant PD-L1 IgV-Fc I20L, D43G, N45D, V58A, N78I, D90G, G101D (Fc fusion)” had an Average Relative Luminescence Units of 2000 RLU and a Fold increase in IL2 reporter signal of 0.9 fold.

In the case of “variant PD-L1 IgV-Fc I20L, K28E, D43G, N45D, V58A, Q89R, G101G-ins (G101GG) (Fc fusion)”, the Average Relative Luminescence Units turned out to be 4290 RLU and the Fold increase in IL2 reporter signal was determined as 1.93 fold.

As for variant PD-L1 IgV-Fc M41K (Fc fusion), the Average Relative Luminescence Units turned out to be 2150 RLU and the Fold increase in IL2 reporter signal amounted to 0.97 fold.

As for “variant PD-L1 IgV-Fc I20L, D43G, N45D, N78I (Fc fusion)”, the Average Relative Luminescence Units was 3470 RLU and the Fold increase in IL2 reporter signal is 1.56 fold.

For “variant PD-L1 IgV-Fc I20L, I36T, N45D (SEQ ID NO 254) (Fc fusion)”, the Average Relative Luminescence Units was 2110 RLU and the Fold increase in IL2 reporter signal worked out at 0.95 fold.

For the substance “variant PD-L1 IgV-Fc I20L, N45T, N78I (Fc fusion)”, the Average Relative Luminescence Units is 2070 RLU and the Fold increase in IL2 reporter signal is 0.93 fold.

Turning to “variant PD-L1 IgV-Fc E27G, N45T, M97I (Fc fusion)”, the Average Relative Luminescence Units amounted to 1970 RLU and the Fold increase in IL2 reporter signal turned out to be 0.88 fold.

“variant PD-L1 IgV-Fc I20L, I36T, N45D (SEQ ID NO 298) (Fc fusion)” gave an Average Relative Luminescence Units of 2210 RLU and a Fold increase in IL2 reporter signal of 0.99 fold.

Substance “variant PD-L1 IgV-Fc D43G, N45D, L56Q, V58A, G101G-ins (G101GG) (Fc fusion)” displayed an Average Relative Luminescence Units of 3930 RLU and a Fold increase in IL2 reporter signal of 1.76 fold.

Substance “variant PD-L1 IgV-Fc N45T, S75P (Fc fusion)” registered an Average Relative Luminescence Units of 1960 RLU and a Fold increase in IL2 reporter signal of 0.88 fold.

Take “variant PD-L1 IgV-Fc D43G, N45D, V58A (Fc fusion)”: the Average Relative Luminescence Units worked out at 2460 RLU and the Fold increase in IL2 reporter signal was determined as 1.11 fold.

Regarding “variant PD-L1 IgV-Fc I20L, K23E, D43G, N45D, V58A, N78I (Fc fusion)”, the Average Relative Luminescence Units worked out at 3510 RLU and the Fold increase in IL2 reporter signal was 1.57 fold.

Regarding “variant PD-L1 IgV-Fc A33D, S75P (SEQ ID NO 287) (Fc fusion)”, the Average Relative Luminescence Units was found to be 2040 RLU and the Fold increase in IL2 reporter signal was determined as 0.92 fold.

“variant PD-L1 IgV-Fc I20L, I36T, N45D, I47T (Fc fusion)” displayed an Average Relative Luminescence Units of 2250 RLU and a Fold increase in IL2 reporter signal of 1.01 fold.

“variant PD-L1 IgV-Fc V11A, I20L, E27G, D43G, N45D, H51Y, S99G (Fc fusion)” gave an Average Relative Luminescence Units of 3380 RLU and a Fold increase in IL2 reporter signal of 1.52 fold.

In the case of “variant PD-L1 IgV-Fc T19I, E27G, N45I, V50A, N78I, M97K (Fc fusion)”, the Average Relative Luminescence Units came out at 2050 RLU and the Fold increase in IL2 reporter signal was found to be 0.92 fold.

Consider “variant PD-L1 IgV-Fc I20L, D43G, N45D, V58A, N78I (Fc fusion)”, for which the Average Relative Luminescence Units turned out to be 4190 RLU and the Fold increase in IL2 reporter signal amounted to 1.88 fold.

Turning to “variant PD-L1 IgV-Fc M18I, M41K, D43G, H51R, N78I (Fc fusion)”, the Average Relative Luminescence Units was 2120 RLU and the Fold increase in IL2 reporter signal is 0.95 fold.

“variant PD-L1 IgV-Fc N45T, V50A (Fc fusion)”: the Average Relative Luminescence Units was 2080 RLU and 2200 RLU; the Fold increase in IL2 reporter signal is 0.93 fold and 0.99 fold.

For the substance “variant PD-L1 IgV-Fc V11E, I20L, I36T, N45D, H60R, S75P (Fc fusion)”, the Average Relative Luminescence Units came out at 2280 RLU and the Fold increase in IL2 reporter signal is 1.02 fold.

Regarding “variant PD-L1 IgV-Fc N45T, V50A, N78I (Fc fusion)”, the Average Relative Luminescence Units turned out to be 1900 RLU and the Fold increase in IL2 reporter signal is 0.85 fold.

The substance “variant PD-L1 IgV-Fc A33D, N78I (Fc fusion)” showed an Average Relative Luminescence Units of 2060 RLU and a Fold increase in IL2 reporter signal of 0.92 fold.

“variant PD-L1 IgV-Fc I20L, I36T, N45T, V50A (Fc fusion)” showed an Average Relative Luminescence Units of 2160 RLU and a Fold increase in IL2 reporter signal of 0.97 fold.

In turn, “variant PD-L1 IgV-Fc I20L, K23E, D43G, N45D, V50A, N78I (Fc fusion)” displayed an Average Relative Luminescence Units of 3590 RLU and a Fold increase in IL2 reporter signal of 1.61 fold.

With “variant PD-L1 IgV-Fc E27G, N45T, K57R (Fc fusion)”, the Average Relative Luminescence Units is 2030 RLU and the Fold increase in IL2 reporter signal was found to be 0.91 fold.

Take variant PD-L1 IgV-Fc N78L (Fc fusion): the Average Relative Luminescence Units amounted to 2240 RLU and the Fold increase in IL2 reporter signal was 1.01 fold.

For the substance “variant PD-L1 IgV-Fc K28N, M41V, N45T, H51N, K57E (Fc fusion)”, the Average Relative Luminescence Units was 2350 RLU and the Fold increase in IL2 reporter signal was found to be 1.05 fold.

The substance “variant PD-L1 IgV-Fc E27G, N45T, V50A (Fc fusion)” yielded an Average Relative Luminescence Units of 2000 RLU and a Fold increase in IL2 reporter signal of 0.9 fold.

For the substance “variant PD-L1 IgV-Fc I20L, E27G, D43G, N45D, V58A, N78I (Fc fusion)”, the Average Relative Luminescence Units was determined as 4590 RLU and the Fold increase in IL2 reporter signal was found to be 2.06 fold.

In the case of “variant PD-L1 IgV-Fc Y14S, K28E, N45T (Fc fusion)”, the Average Relative Luminescence Units worked out at 2150 RLU and the Fold increase in IL2 reporter signal was 0.97 fold.

The substance “variant PD-L1 IgV-Fc N45T, N78I (Fc fusion)” displayed an Average Relative Luminescence Units of 2180 RLU and a Fold increase in IL2 reporter signal of 0.98 fold.

“variant PD-L1 IgV-Fc A33D, N78S (Fc fusion)”: the Average Relative Luminescence Units amounted to 2060 RLU and the Fold increase in IL2 reporter signal was 0.92 fold.

“variant PD-L1 IgV-Fc K23R, N45T, N78I (Fc fusion)” had an Average Relative Luminescence Units of 2690 RLU and a Fold increase in IL2 reporter signal of 1.21 fold.

The next experiment addresses human PD-1 and human TIGIT both stably expressed on Jurkat cells (Jurkat/PD-1/TIGIT cells). The experiment is described as follows: flow cytometry, Jurkat/PD-1/TIGIT cells, 20 nM.
The substance “Wild-type CD155-ECD-Fc (from UniProt P15151 21-343) (Fc fusion)” registered an MFI at 20 nM of 1200 MFI.

As to “Full length ECD of PD-L1 (R&D Systems) (from UniProt Q9NZQ7 19-238) (Fc fusion)”, the MFI at 20 nM was 10400 MFI.

On to “Fc Control (homodimer) (from UniProt P0DOX5 218-449)”, for which the MFI at 20 nM worked out at 478 MFI.
